In the supplement of paper PMC9112550, “Optimization of the antimicrobial peptide Bac7 by deep mutational scanning” (BMC Biology, 2022):

system: Escherichia coli TOP10; assay: shrunken log2 fold change of peptide-encoding DNA abundance (4.5 h post-induction vs induction); higher = less antimicrobial activity (less host growth inhibition); settings: time post-induction: 4.5 h; library: site-saturation at positions 5, 18, 19, 20
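Note: peptides expressed intracellularly from a pBAD plasmid library in pooled LB shake-flask culture, induced with 0.3% L-arabinose, DNA abundance read by NGS, three biological replicates, DESeq2 with apeglm shrinkage.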

| Sequence | shrunken log2 fold change |
| --- | --- |
| RRIRTRPPRLPRPRPRPPEAPRP | 0.205 |
| RRIRTRPPRLPRPRPRPPEYPRP | 0.0238 |
| RRIRTRPPRLPRPRPRPPFGPRP | 0.0407 |
| RRIRTRPPRLPRPRPRPPFMPRP | -0.194 |
| RRIRTRPPRLPRPRPRPPFNPRP | 0.0539 |
| RRIRTRPPRLPRPRPRPPILPRP | 0.112 |
| RRIRTRPPRLPRPRPRPPMYPRP | -0.406 |
| RRIRTRPPRLPRPRPRPPPKPRP | 0.82 |
| RRIRTRPPRLPRPRPRPPPRPRP | 1.36 |
| RRIRTRPPRLPRPRPRPPQQPRP | 0.211 |
| RRIRTRPPRLPRPRPRPPRAPRP | 0.786 |
| RRIRTRPPRLPRPRPRPPTFPRP | -0.203 |
| RRIRTRPPRLPRPRPRPPTKPRP | 0.674 |
| RRIRTRPPRLPRPRPRPPTLPRP | 0.0694 |
| RRIRTRPPRLPRPRPRPPTSPRP | 0.345 |
| RRIRTRPPRLPRPRPRPPTTPRP | 0.302 |
| RRIRTRPPRLPRPRPRPPVLPRP | 0.0185 |
| RRIRTRPPRLPRPRPRPPWTPRP | 0.167 |
| RRIRTRPPRLPRPRPRPPYAPRP | -0.17 |
| RRIRTRPPRLPRPRPRPPYTPRP | -0.397 |
| RRIRTRPPRLPRPRPRPQAEPRP | -0.00758 |
| RRIRTRPPRLPRPRPRPQANPRP | -0.156 |

| Sequence | shrunken log2 fold change |
| --- | --- |
| RRIRTRPPRLPRPRPRPQAQPRP | 0.017 |
| RRIRTRPPRLPRPRPRPQCLPRP | 0.0552 |
| RRIRTRPPRLPRPRPRPQCPPRP | -0.125 |
| RRIRTRPPRLPRPRPRPQDYPRP | 0.0537 |
| RRIRTRPPRLPRPRPRPQEPPRP | -0.0583 |
| RRIRTRPPRLPRPRPRPQERPRP | 0.00298 |
| RRIRTRPPRLPRPRPRPQFFPRP | -0.11 |
| RRIRTRPPRLPRPRPRPQGCPRP | 0.0515 |
| RRIRTRPPRLPRPRPRPQHHPRP | -0.453 |
| RRIRTRPPRLPRPRPRPQLFPRP | -0.112 |
| RRIRTRPPRLPRPRPRPQLMPRP | -0.137 |
| RRIRTRPPRLPRPRPRPQLTPRP | -0.0274 |
| RRIRTRPPRLPRPRPRPQNDPRP | -0.749 |
| RRIRTRPPRLPRPRPRPQNGPRP | -0.456 |
| RRIRTRPPRLPRPRPRPQNMPRP | -0.654 |
| RRIRTRPPRLPRPRPRPQNTPRP | -0.622 |
| RRIRTRPPRLPRPRPRPQPAPRP | 0.0787 |
| RRIRTRPPRLPRPRPRPQPHPRP | -0.0402 |
| RRIRTRPPRLPRPRPRPQQNPRP | -0.0459 |
| RRIRTRPPRLPRPRPRPQRAPRP | 0.265 |
| RRIRTRPPRLPRPRPRPQRRPRP | -0.0307 |
| RRIRTRPPRLPRPRPRPQSEPRP | -0.141 |

| Sequence | shrunken log2 fold change |
| --- | --- |
| RRIRTRPPRLPRPRPRPQTYPRP | -0.0726 |
| RRIRTRPPRLPRPRPRPQVIPRP | -0.232 |
| RRIRTRPPRLPRPRPRPQYSPRP | -0.056 |
| RRIRTRPPRLPRPRPRPRCGPRP | 0.172 |
| RRIRTRPPRLPRPRPRPRERPRP | 0.112 |
| RRIRTRPPRLPRPRPRPRFSPRP | -0.14 |
| RRIRTRPPRLPRPRPRPRGFPRP | 0.732 |
| RRIRTRPPRLPRPRPRPRGNPRP | 0.0399 |
| RRIRTRPPRLPRPRPRPRGRPRP | 0.593 |
| RRIRTRPPRLPRPRPRPRGVPRP | 0.196 |
| RRIRTRPPRLPRPRPRPRIAPRP | 0.102 |
| RRIRTRPPRLPRPRPRPRIRPRP | 0.0303 |
| RRIRTRPPRLPRPRPRPRKHPRP | -0.166 |
| RRIRTRPPRLPRPRPRPRMCPRP | 0.00183 |
| RRIRTRPPRLPRPRPRPRNSPRP | -0.193 |
| RRIRTRPPRLPRPRPRPRNTPRP | -0.209 |
| RRIRTRPPRLPRPRPRPRPFPRP | 0.114 |
| RRIRTRPPRLPRPRPRPRPTPRP | 0.626 |
| RRIRTRPPRLPRPRPRPRTPPRP | 0.138 |
| RRIRTRPPRLPRPRPRPRYAPRP | 0.108 |
| RRIRTRPPRLPRPRPRPRYHPRP | -0.573 |
| RRIRTRPPRLPRPRPRPSACPRP | -0.277 |

| Sequence | shrunken log2 fold change |
| --- | --- |
| RRIRTRPPRLPRPRPRPSCNPRP | -0.768 |
| RRIRTRPPRLPRPRPRPSENPRP | -0.0993 |
| RRIRTRPPRLPRPRPRPSETPRP | 0.11 |
| RRIRTRPPRLPRPRPRPSFDPRP | -0.365 |
| RRIRTRPPRLPRPRPRPSFFPRP | -0.256 |
| RRIRTRPPRLPRPRPRPSGVPRP | 0.00112 |
| RRIRTRPPRLPRPRPRPSIAPRP | -0.281 |
| RRIRTRPPRLPRPRPRPSKTPRP | 0.0543 |
| RRIRTRPPRLPRPRPRPSKYPRP | 0.557 |
| RRIRTRPPRLPRPRPRPSPRPRP | 0.396 |
| RRIRTRPPRLPRPRPRPSQCPRP | -0.239 |
| RRIRTRPPRLPRPRPRPSTEPRP | -0.456 |
| RRIRTRPPRLPRPRPRPSWRPRP | 0.153 |
| RRIRTRPPRLPRPRPRPSWWPRP | 0.125 |
| RRIRTRPPRLPRPRPRPSYCPRP | 0.0739 |
| RRIRTRPPRLPRPRPRPSYWPRP | -0.153 |
| RRIRTRPPRLPRPRPRPTAAPRP | 0.211 |
| RRIRTRPPRLPRPRPRPTAHPRP | 0.0803 |
| RRIRTRPPRLPRPRPRPTAQPRP | 0.247 |
| RRIRTRPPRLPRPRPRPTEWPRP | 0.0143 |
| RRIRTRPPRLPRPRPRPTGTPRP | -0.0721 |
| RRIRTRPPRLPRPRPRPTITPRP | 0.184 |

| Sequence | shrunken log2 fold change |
| --- | --- |
| RRIRTRPPRLPRPRPRPTKVPRP | -0.134 |
| RRIRTRPPRLPRPRPRPTKWPRP | -0.0752 |
| RRIRTRPPRLPRPRPRPTLEPRP | 0.0319 |
| RRIRTRPPRLPRPRPRPTLSPRP | 0.106 |
| RRIRTRPPRLPRPRPRPTMAPRP | 0.201 |
| RRIRTRPPRLPRPRPRPTMNPRP | -0.371 |
| RRIRTRPPRLPRPRPRPTNAPRP | 0.209 |
| RRIRTRPPRLPRPRPRPTNCPRP | 0.216 |
| RRIRTRPPRLPRPRPRPTNVPRP | 0.118 |
| RRIRTRPPRLPRPRPRPTPQPRP | 0.241 |
| RRIRTRPPRLPRPRPRPTPSPRP | 0.563 |
| RRIRTRPPRLPRPRPRPTPWPRP | 0.411 |
| RRIRTRPPRLPRPRPRPTQGPRP | 0.358 |
| RRIRTRPPRLPRPRPRPTRSPRP | -0.111 |
| RRIRTRPPRLPRPRPRPTSAPRP | 0.587 |
| RRIRTRPPRLPRPRPRPTSLPRP | -0.123 |
| RRIRTRPPRLPRPRPRPTTLPRP | -0.316 |
| RRIRTRPPRLPRPRPRPTWRPRP | 0.233 |
| RRIRTRPPRLPRPRPRPTYPPRP | 0.0247 |
| RRIRTRPPRLPRPRPRPTYSPRP | -1.56 |
| RRIRTRPPRLPRPRPRPVAIPRP | -0.168 |
